From paper PMC12643504

What was measured:
[1] = target: Full-length PKD2 (WT) (human) (UniProt Q13563); assay: SEC; channel proteins solubilised in DDM, Strep-Tactin affinity purified, reconstituted in amphipol A8-35, MBP cleaved by TEV; SEC at 4°C on Superdex 200 10/300 GL in 25 mM HEPES pH 7.4, 150 mM NaCl, 1 mM TCEP, 1 mM CaCl2; FSEC (Superose 6 5/150 GL, tryptophan fluorescence) after heating
[2] = target: PKD2 R803X Taiwan founder truncation variant (human) (UniProt Q13563); assay: as above

stoichiometry N [1]	stoichiometry N [2]	Substance
4	–	Full-length PKD2 (WT) (from UniProt Q13563 1-968) (natural protein)
–	4	PKD2 R803X Taiwan founder truncation variant (from UniProt Q13563 1-802) (domain or fragment)
